B1: TPR t1 (parent)
chain: GACCAAUCUGCCCUCAGAGCUCGAGAACAUCUUCGGAUGCAGAGGAGGCAGGCUUCGGUGGCGCGAUAGCGCCAACGUCCUCAACCUCCAAUGCAUCCCACCACAUGAUGAUGCCUGAAGAGCCUUGGUUUUUUG

Variants of: B1
Assay: polymerase ribozyme fitness, log enrichment relative to wild type (log ratio); higher = more active; in vitro selection for triplet polymerase activity
How it was run: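 Frozen incubation at −7 °C formed the core of a single, triplicate in vitro selection round applied to PCR-built, transcribed mutant libraries of each subunit of a heterodimeric triplet polymerase ribozyme. Extended constructs were gel-excised, captured with streptavidin beads and amplified by RT-PCR, and input and output libraries were Illumina-sequenced with a filter of ≥10 input reads and ≥1 read per output. Fitness is the logarithm of genotype enrichment relative to wild-type enrichment, with inverse-variance-weighted replicate averaging, and the logarithm is base 2.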

Variant | polymerase ribozyme fitness (log ratio)
GACCAAUCUGCCCUCAGAGCUCGAGAACAUCUUCGGAUGCAGAGGAGGCAGGCUUCGGUGGCGCGAUAGCGCAAACGUCCUCAACCUCCAAUGCAUCCCACCACAUGAUGAUGCCUGAAGAGCCUUGCUUUUUUG | -2.05
GACCAAUCUGCCUUCAGAGCUCGAGAACAUCUUCGGAUGCAGAGGAGGCAGGCUUCGGUGGCACGAUAGCGCCAACGCCCUCAACCUCCAAUGCAUCCCACCACAUGAUGAUGCCUGAAGAGCCUUGGUUUUUUG | -0.503
GACCAAUCUGCCCUCAGAGCUCGAGAACAUCUUCGGAUGCAGAGGAGGCAGGCUUCGGUGGCGCGAUAGCGGCAACGUCCUCAACCUCCAAUGCAUCCCACCACAUGAUGAUGCCUGAAGAGCCGUGGUUUUUUG | -1.12
GACCAAUGUCCCCUCAGAGCUCGAGAACAUCUUCGGAUGCAGAGGAGGCAGGCUGCGGUGGCGCGAUAGCGCCAACGUCCUCAACCUCCACUGCAUCCCACCACAUGAUGAUGCCUGAAGAGCCUUGGUUUUUUG | -1.21
GACCAAUCUGGCCUCAGAGCUCGAGAACAUCUUCGGAUGCAGAGGAGGUAGGCUUCGGUGGCGCGAUAGCGGCAACGUCCUCAACCUCCAAUGCAUCCCACCACAUGAUGAUGCCUGAAGAGCCUUGGUUUUUUG | -0.598
GACCAAUCUGCCCUCAGAGCUCGAGAACAUCUUCGGAUGCAGAGGAGGAAGGCUUAGGUGGCACGAUAGCGCCAUCGUCCUCCACCUCCAAUGCAUCCCACCACAUGAUGAUUCCUGAAGAGGCUUAGUUUUUUG | -5.69
GACCAAUCUGCCCUCAGAGCUCGAGAACAUCUUCGGAUGCAGAGGAUGCAGGCUUCGGUGGCGCGAUAGCGCCAACGUCCUCAACCUCCAAUGCAUCCCACCACAUGAUGAUGCCUGAUGAGCCUUGGUUUUUUG | -1.82
GACCAAUCUGCCCUCAGAGCUCGAGAACAUCUUCAGAUGCAGAGGAGGCAGGCUUCGGUGGCGCGAUAGCGCCAACGCCCUCAACCUCCAAUGCAUCCCACCACAUGAUGAUGCCUGAAGAGCCUUGGUUUUUUG | -3.74
GACCAAUCUGCCCUCAGAGCUCGAGAACAUCUUCGGAUGCAGAGGAGGCAGGCUUCGGUGGCGCGAUAGAGCCAACGUCCUCAACCUCCAAUGCAUCCCACCACAUGAGGAUGCCUGAAGAGCCUUGGUUUUUUG | -5.72
GACCAAUCUGCCCUCAGAGCUCGAGAACAUCUUCGGAUGCAGAGGAGGCAGGCUUAGGUGGCGUGAUAGCGCCAACGUCCUCAACCUCCAAUGCAUCCCACCACAUGAUGAUGCCUGAAGAGCCUUGGUUUUUUG | -0.751
GACCAAUCUGCCCUCAGAGCUCGAGAACAUCUUCGGAUGCAGAGGGGGCAGGCUUCGGUGGCGUGAUAGCGCCAACGUCCUCAACCUCCAAUGCAUCCCACCACAUGAUGAUGCCUGAAGAGCCUUGGUUUUUUG | -0.426
GACCAAUCUGCCCUCAGAGCUCGAGAACAUCUUCGGAUGCAGAGGAGGCAGGCUUCGGUGGCGCGAUAGGGCCAACGUCCUCAACCUCCAAUGCAUCCCACCACAUGAUGAUGCCUGAAGAGCCUUGGCUUUUUG | -3.02
GACCAAUCUACCCUCAGAGCUCGAGAACAUCUUCGGAUGCAGAGGAGGCAGGCUUCGGUGGCACGAUAGCGCCAACGUCCUCAACCUCCAAUGCAUCCCACCACAUGAUGAUGCCUGAAGAGCCUUGGUUUUUUG | -0.758
GACCAAUCUGCCCUCAGAGCUCGAGAACAUCUUCGGAUGCAGAGGAGGCAGGCUUCGGUGUCGCGAUAGCGCCAACGUCAUCAACCUCCAAUGCAUCCCACCACAUGAUGAUGCCUGAAGAGCCUUGGUUUUUUG | -2.59
GACCAAUCUGCACUCAGAGCUCGAGAACAUCUUCGGAUGCAGAGGUGGCAGGCUUCGGUGGCGCGAUAGCGCCAACGUCCUUAACCUCCAAUGCAUCCCACCACAUGAUGAUGCCUGAAGAGCCUUGGUUUUUUG | -1.99
GACCAAUCUGCCCUCAGAGCUCGAGAACAUCUUCGGAUGCAGAGGAGGCAGGCUUCGGUGGCACGAUAGCGCCAACGUCCUCAACCUCCAAUGCAUCCCACCACGUGAUGAUGCCUGAAGAGCGUUGGUUUUUUG | -2.8
GACCAAUCGGCCCUCAGAGCUCGAGAACAUCUUCGGAUGCAGAGGAGGCAGGCUUCGGUGGCGCGAUAGCGCCAACGUCCUCAACCUCCAAUGCAUUCCCCCACAUGGUGAUGCCUGAAGAGCCUUGGUUUUUUG | -2.87
GACCAAUCUGCCCUCAUAGCUCGAGAACAUCUUCGGAUGCAGAGUAGGCAGGCUUCGGUGUCGCGAUAGCGCCAACGUCCACAACCUCCAAUGCAUCCCACCACAUGAUGAUGCCUGAAGAGCCUUGGUUUUUUG | -3.74
GACCGAUCUGCCCUCAGAGCUCGAGAACAUCUUCGGAUGAAGAGGAGGCAGGCUUCGGUGGCGCGAUAGCGUCAACGUCCUCAACCUCCAAUGCAUCCCACCACAUGAUUAUGCCUGAAGAGCCUUGGUUUUUUG | -3.65
GUCAAAUCUGCCCUCAGAGCUCGAGAACAUCUUCGGAUGCAGAGGAGGCAGGCUUGGGUGGCGCGAUAGCGCCAACGCGCUCAACCUCCAAUGCAUCCCAUCACAUGAUGAUGCCUGAAGAGCCUUGGUUUUUUG | -3.31
GACCAAUCUGCCCUCAGAGCUCGAGAACAUCUUCGGAUGCAGAGGAGGCAGGCUUCGGUGGCGCGAUAGCGCCAACGUCCUCAACCUCCAAUGGAUCCCACCACAUGAUGAUGCCUGAAGAGAAUUGGUUUUUUG | 1.47

Variant | polymerase ribozyme fitness (log ratio)
GACCAAUCUGCCCUCAGAGCUCGAGAACAUCUUCGGAUGUAGAGGAGGCAGGCUUCGGUGUCGCGAUAGCGCCAACGUCCUCAACCUCCAAUGCAUCCCACCACAUGAUGAUGCCUGAAGAGCCUUGGUUUUUUG | -0.267
GACCAAUCUGCCCUAAGAGCUCGAGAACAUCUUCGGAUGCAGAGGAGGCAGGCUUAGGUGGCGCGAUAGCGCCAACGUCCUCAACCUCCAAUGCAUCCCACCACAUGAUGAUGCCUGAAGAGCCUUGGUUUUUUG | -0.645
GACCAAUCUGCGCUCAGAGCUCGAGAACAUCUUCGGAUGCAGAGGAGGCAGGCUUCGGUGGCGCGAUAGCGCCAACGUCCUCAACCUCCAAUGUAUCCCACCACAUGAUCAUGCCUGAAGAGCCUUCGUUUUUUG | -4.48
GACCAACCUGCCCUCAGAGCUCGAGAACAUCUUCGGUUGCAGAGGAGGCAGGCUUCGGUAGCGCGAUAGCGCCAACGUCCUCAACCUCCAAUGCAUCCCACCACAUGAUGAUGCCUGAAGAGCCUUGGUUUUUUG | -0.133
GACCAAUCUGCCCUCAGAGCUCGAGAACAUCUUCGGAUUCAGAGGAGGCAGGCUUCGGUGGCGCGAUGGUGCCAACGUCCUCAACCUCCAAUGCAUCCCACCACAUGAUGAUGCCUGAAGUGCCUUGGUUUUUUG | -2.23
GACCAAUCUGCCCUCAGAGCUCGAGAACAUCUUCGGAUGCAGAGCAGGCAGGCUUCGGUGGCGCGAUAGCGCCAACGUCCUCAACCUCCAAUGCAUCCCGCCACAUGAUGAUGCCUGAAAAGCCUUGGUUUUAUG | -2.23
GACCAAUCUGCCCUCAGAGCUCGAGAACAUCUUCGGAUGCAGAGGAGACAGGCUUCGGUGGCGCGAUAGCGCCAACGUCCUCAACCUCCAAAGCAUCCCACCACAAGAUGAUGCCUGAAGAGCCUUGGUUUUUUG | -3.9
GACCAAUUUGCCCCCAGAGCUCGAGAACAUCUUCGGAUGCAGAGGAGGCAGGCUUCGGUGGCGCGAUAGCGCCAACGCCCUCAACCUCCAAUGCAUCCCACCACAAGAUGAUGCCUGAAAAGCCUUGGUUUUUUG | 1.87
GACCAAUCUGCCCUCAGAGCUCGAGAACAUCUUCGGAUGCAGGGGAGGCAGGCUUCGGUGGCGCGAUAGCGCCAACGUCCUCAACCUGCAAUGCAUCCCACCACAUGAUGAUUCCUGAAGGGCCUUGGUUUUUUG | -3.25
GACCAAUCUGCUCUCAGAGCUCGAGAACAUCUUCGGAUGCAGAGGAGGCAGGCUUCGGUGGCGCGAUAGCGCCAACGUCCUCAACCUCCAAUGCAUCCCACCACAUGAUGAUGCCUGAAGAGCCUUGGUGUUUUG | 0.00659
GGCCAAUCUGCCCUCAGAACUCGAGAACAUCUUCGGAUGCAGAGGAGGCAGGCUUCGGUGGCGCGAUAGCGCCAACGUCCUCAACCUCCAAUGCAUCCCACCACAUGAUGAUGCCUGAAGAGCCUUGGUUUUUUG | -2.68
GACCAAUCUGCCCUCAGAGCUCGAGAACAUCUUCGGAUGCAGAGGAGGCAGGCUUCGGUGGCGCGAUAGCGUCAACGUCCUCAACCUCCAAUGCAUCCCAGCACAUGAUGAUGCCUUAAGAGCCUUGGUUUUUUG | -3.6
GACCAAUCUGCCCUCAGAGCUCGAGAACAUCUUCGGAUGCAGAGGAGGCAGGCUUCGGUGGCGCGAUAGCGCCAACGUCCUCAACCUCCAAUGCUUCCCACCACAUGAUGAUGACUGAAGAGCCUUGGUUUUUUG | -1.43
GACCAAUCUGCUCUCAGAGCUCGAGAACAUCUUCGGAUGCAGAGGAGGCAGGCUUCGGUGGCGCGAUAGCCCCAACGUCCUCAACCUCCAAUGCAUCCCACCACAUGAUGAUGCCUGAAGAGCCUUGGUUUUUUG | -0.564
GACCAAUCUGCCCUCAGAGCUCGAGAACAUCUUAGGAUGCAGAGGAGGCAGGCUUCGGUGGCGCGAUAGCGCCAACGUCCUCGACCUCCAAUGCAUCCCUCCACAUGAUGAUGCCUGAAGAGCCUUGGUUUUUUG | -5.18
GACCAAUCUGCCCUCAGAGCUCGAGAACAUCUUCGCAUGCAGAGGAGGCAGGCUUCGGUGUCGCGAUAGCGCCAACGUCCUCAACCUCCAAUGCAUCCCACCACAUGAUGAUGACUGAAGAGCCUUGGUUUUUUG | -2.77
GACCAAUCUGCCCUCAGAGCUCGAGAACAUCUUCAGAUGCACAGGAGGCAGGCUUCGGUGGCGCGAUAGCGCUAACGUCCUCAUCCUCCAAUGCAUCCCACCACAUGAUGAUGCCUGAAGAGUCUUGGUUUUUUG | -6.85
GACCAAUCUGUCCUCAGAGCUCGAGAACAUCUUCGGAUGCAGAGGAGUCAGGCUUCGGUGGCGCGAUAGCGCCAACGUCCUCAACCUCCAAUGCAUCCCACCACAUGAUGAUGCCUGAAGAGCCUUGGUUUUUUG | -0.841
GACCAAUCUGCCCUCAGAGCUCGAGAACAUCUUCGGAUGCAGAGGAGGCAGGCUUCGGUGGCGCGAUAGCGCCAACGUCCUCAACCUCCAAUGCAUCCCACCACAUGAUGAUGCCUGAAGAGCCUAGGUAUUUUG | -3.19
GACCAAUCUGCCCUCAGAGCUCGAGAACAUCUUCGGAUGCAGCGGAGCCAGGCUUCGGUGGCGCGAUAGCGGCAACGUCCUCAACCUCCAAUGCAUCCCACGACAUGAUGAUGCCUGAAGAGCCUUGGUUUUUUG | -7.62
GACCAAUCUGCCCUCAGAGCUCGAGAACGUCUUCGGAUGCAGAGGAGGGAGGCUUCGGUGGCGCGAUAGCACCAACGUCCUCAACCUCCAAUGCAUCCCACCACAUGAUGAUGCCUGAAGAGCCGUGGUUUUUUG | -3.8

From the RNAGym collection of RNA variant scans (doi:10.1073/pnas.2313332121)
